# Test results: patent publication US20130330324A1 (Novartis, published 2013)
# Legend:
# [1] = target: T1, Human HER3, endogenous, on human cancer cell lines (human, UniProt P21860 20-1342); assay: cell-based or functional assay
# [2] = target: T1, Human HER3, endogenous, on human cancer …; assay: cell-based or functional assay; remark: listed apart in the source
# [3] = target: T1, Human HER3, endogenous, on human cancer …; assay: cell-based or functional assay; remark: listed apart in the source
# [4] = target: T2, Hu HER3 (CD33-[Human HER3, residues 20-640]-TAG) (human, UniProt P21860 20-640); assay: solution equilibrium titration (SET), IgG
# T2 construct: N-terminal CD33 leader is a secretion signal and is left out; also called hu HER3-Tag; HER3-Tag; not shown: C-terminal TAG (e.g. FLAG TAG)
# [5] = target: T3, Mu HER3 (CD33-[Murine HER3, residues 20-643]-TAG) (mouse, UniProt Q61526 20-643); assay: solution equilibrium titration (SET), IgG
# T3 construct: range 20-643; CD33 leader left out as signal; also called mu HER3-Tag; not shown: C-terminal TAG (e.g. FLAG TAG)
# [6] = target: T4, Rat HER3 (CD33-[Rat HER3, residues 20-643]-TAG) (rat, UniProt Q62799 20-643); assay: solution equilibrium titration (SET), IgG
# T4 construct: range 20-643; CD33 leader left out as signal; also called ra HER3-Tag; not shown: C-terminal TAG (e.g. FLAG TAG)
# [7] = target: T5, Cyno HER3 (CD33-[Cyno HER3, residues 20-643]-TAG) (cynomolgus, UniProt G7PIG5 20-643); assay: solution equilibrium titration (SET), IgG
# T5 construct: range 20-643; CD33 leader left out as signal; also called cy HER3-Tag; not shown: C-terminal TAG (e.g. FLAG TAG)
# [8] = target: T1, Human HER3, endogenous, on human cancer …; assay: FACS titration on SK-Br-3 cells
# [9] = target: T2, Hu HER3 (CD33-[Human HER3, residues …); assay: ELISA titration, wild-type HER3-Tag coated, antibody titrated, OD450
# [10] = target: T6, HER3 L268A (CD33-[Human HER3, residues 20-640, L268A]-TAG) (human, UniProt P21860 20-640); assay: ELISA titration, mutant HER3-Tag coated, antibody titrated, OD450
# T6 construct: CD33 leader left out as signal; also called HER3 L268A-Tag; not shown: C-terminal TAG
# [11] = target: T7, HER3 K267A (CD33-[Human HER3, residues 20-640, K267A]-TAG) (human, UniProt P21860 20-640); assay: as above
# T7 construct: CD33 leader left out as signal; also called HER3 K267A-Tag; not shown: C-terminal TAG
Binder,BT-474 proliferation % inhibition at 10 µg/ml IgG [1] [%],MCF7 (neuregulin stimulated) proliferation % inhibition at 10 µg/ml IgG [1] [%],SK-Br-3 proliferation % inhibition at 10 µg/ml IgG [1] [%],MCF7 pHER3 % inhibition [2] [%],MCF7 pHER3 IC50 [2] [pM],SK-Br-3 pHER3 % inhibition [2] [%],SK-Br-3 pHER3 IC50 [2] [pM],BT-474 pAkt (S473) % inhibition [3] [%],SK-Br-3 pAkt (S473) % inhibition [3] [%],SK-Br-3 pAkt (S473) IC50 [3] [pM],Kd [4] [nM],Kd [5] [nM],Kd [6] [nM],Kd [7] [nM],EC50 [8] [nM],MCF7 pAkt (S473) IC50 [3] [pM],EC50 (read off the curve) [9] [nM],binding result [10],binding result [11]
"MOR09824 (antibody, human IgG1, kappa, V domains shown, tested as IgG) VH: QVQLVESGGGLVQPGGSLRLSCAASGFTFSSYAMSWVRQAPGKGLEWVSVISAWGHVKYYADSVKGRFTISRDNSKNTLYLQMNSLRAEDTAVYYCARWGDEGFDIWGQGTLVTVSS VL: DIQMTQSPSSLSASVGDRVTITCRASQGISNWLAWYQQKPGKAPKLLIYGASSLQSGVPSRFSGSGSGTDFTLTISSLQPEDFAVYYCQQYSSFPTTFGQGTKVEIKR",36.8,82,33,91,103,64,110,46,93,62,0.003,0.002,0.007,0.003,0.324,–,–,–,–
"MOR10703 (antibody, human IgG1, kappa, V domains shown, tested as IgG) VH: EVQLLESGGGLVQPGGSLRLSCAASGFTFSSYAMSWVRQAPGKGLEWVSAINSQGKSTYYADSVKGRFTISRDNSKNTLYLQMNSLRAEDTAVYYCARWGDEGFDIWGQGTLVTVSS VL: DIQMTQSPSSLSASVGDRVTITCRASQGISNWLAWYQQKPGKAPKLLIYGASSLQSGVPSRFSGSGSGTDFTLTISSLQPEDFATYYCQQYSSFPTTFGQGTKVEIKR",41.6,81,35,80,333,69,167,62,89,70,0.026,0.02,0.04,0.023,2.45,449,~0.3,no binding,no binding
